Results on two molecules are retold here after publication PMC5314767.

One series deals with POLRMT;TFAM;TFB2M (human;human;human, UniProt O00411;Q00059;Q9H5Q4 43-1230;43-245;21-396, ||). The experiment in a line: fluorescence anisotropy.
In another series the target is POLRMT;TFAM (human;human, UniProt O00411;Q00059 43-1230;43-245, |). The series can be described thus: fluorescence anisotropy. (In general: Polarisation of emitted light reports the rotation of a fluorescent probe.)
For series [1], the target named is T1, TFAM (human, UniProt Q00059 43-245).
T1 sequence: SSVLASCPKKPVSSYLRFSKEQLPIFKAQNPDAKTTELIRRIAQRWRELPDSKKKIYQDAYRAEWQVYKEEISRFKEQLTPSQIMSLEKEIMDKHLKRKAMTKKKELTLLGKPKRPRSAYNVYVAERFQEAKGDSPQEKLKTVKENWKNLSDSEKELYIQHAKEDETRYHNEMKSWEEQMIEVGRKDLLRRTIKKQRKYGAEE
The series can be described thus: fluorescence anisotropy.

For a further series, the target named is POLRMT;TFB2M (human;human, UniProt O00411;Q9H5Q4 43-1230;21-396, |). The series can be described thus: fluorescence anisotropy.
The target in a further series is POLRMT (human, UniProt O00411 43-1230). The experiment in a line: fluorescence anisotropy.
Series [2] concerns the target T1, TFAM. The experiment in a line: EMSA. A general note: A gel shift assay detects complexes by their altered migration in electrophoresis.

POLRMT;TFB2M, sequence (O00411 43-1230, chain 1 of 2): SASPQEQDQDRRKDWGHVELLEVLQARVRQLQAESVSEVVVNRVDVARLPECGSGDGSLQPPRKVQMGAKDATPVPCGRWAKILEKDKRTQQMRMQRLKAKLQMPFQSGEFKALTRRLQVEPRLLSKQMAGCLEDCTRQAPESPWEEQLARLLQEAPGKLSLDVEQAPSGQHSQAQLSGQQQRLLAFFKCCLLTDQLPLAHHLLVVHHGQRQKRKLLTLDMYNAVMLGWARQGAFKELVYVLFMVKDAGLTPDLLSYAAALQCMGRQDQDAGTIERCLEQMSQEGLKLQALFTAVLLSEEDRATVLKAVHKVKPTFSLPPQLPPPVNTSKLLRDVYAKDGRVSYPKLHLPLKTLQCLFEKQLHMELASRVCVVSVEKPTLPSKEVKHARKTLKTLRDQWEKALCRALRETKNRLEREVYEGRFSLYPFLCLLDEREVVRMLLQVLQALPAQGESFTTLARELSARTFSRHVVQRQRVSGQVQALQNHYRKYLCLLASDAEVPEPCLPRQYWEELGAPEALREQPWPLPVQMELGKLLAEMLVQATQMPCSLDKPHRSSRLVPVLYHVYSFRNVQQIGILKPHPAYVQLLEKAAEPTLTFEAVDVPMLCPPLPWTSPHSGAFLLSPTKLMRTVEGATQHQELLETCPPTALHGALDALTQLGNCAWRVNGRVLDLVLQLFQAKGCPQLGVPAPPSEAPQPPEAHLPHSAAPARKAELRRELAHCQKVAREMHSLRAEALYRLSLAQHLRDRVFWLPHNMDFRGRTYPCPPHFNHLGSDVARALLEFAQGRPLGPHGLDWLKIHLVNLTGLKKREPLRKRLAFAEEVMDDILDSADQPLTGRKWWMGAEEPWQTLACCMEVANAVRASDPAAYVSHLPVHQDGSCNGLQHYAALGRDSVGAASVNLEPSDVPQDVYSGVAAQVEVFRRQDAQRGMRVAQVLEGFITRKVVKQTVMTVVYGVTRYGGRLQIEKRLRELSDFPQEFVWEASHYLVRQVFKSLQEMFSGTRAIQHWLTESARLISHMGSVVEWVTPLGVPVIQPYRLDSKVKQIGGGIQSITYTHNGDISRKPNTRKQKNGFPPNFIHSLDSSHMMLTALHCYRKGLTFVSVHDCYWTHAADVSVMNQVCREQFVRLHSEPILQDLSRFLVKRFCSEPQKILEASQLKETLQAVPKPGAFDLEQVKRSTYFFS
POLRMT;TFB2M, sequence (Q9H5Q4 21-396, chain 2 of 2): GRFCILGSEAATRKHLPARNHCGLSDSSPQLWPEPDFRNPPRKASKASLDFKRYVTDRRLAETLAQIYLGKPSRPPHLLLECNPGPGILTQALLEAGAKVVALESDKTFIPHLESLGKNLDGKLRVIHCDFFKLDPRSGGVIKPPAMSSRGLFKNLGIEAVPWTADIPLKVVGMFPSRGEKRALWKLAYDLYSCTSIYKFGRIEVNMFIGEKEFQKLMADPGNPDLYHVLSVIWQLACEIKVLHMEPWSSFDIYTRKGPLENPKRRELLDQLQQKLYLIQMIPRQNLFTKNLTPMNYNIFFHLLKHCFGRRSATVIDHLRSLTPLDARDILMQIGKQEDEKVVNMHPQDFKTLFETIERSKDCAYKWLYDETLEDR
POLRMT, sequence (O00411 43-1230): as the sequence (O00411 43-1230, chain 1 of 2) above
POLRMT;TFAM, sequence (O00411 43-1230, one chain of several): as the sequence (O00411 43-1230, chain 1 of 2) above
POLRMT;TFAM;TFB2M, sequence (O00411 43-1230, chain 1 of 2): as above
POLRMT;TFAM;TFB2M, sequence (Q9H5Q4 21-396, chain 3 of 2): as the sequence (Q9H5Q4 21-396, chain 2 of 2) above

B1: LSP -41 to +10 (dsDNA)
DNA 1: TGTGTTAGTTGGGGGGTGACTGTTAAAAGTGCATACCGCCAAAAGATAAAA
DNA 2: TTTTATCTTTTGGCGGTATGCACTTTTAACAGTCACCCCCCAACTAACACA
By Kd is commonly meant the free concentration of one partner at which half of the binding sites on the other are occupied at equilibrium, for simple one-to-one binding. As for B1, the Kd in the series with POLRMT;TFAM;TFB2M came out at 4 nM; with POLRMT;TFAM, 3 nM; with TFAM [1], 7 nM.

B2: LSP -41 to -12 upstream fragment (dsDNA)
DNA 1: TGTGTTAGTTGGGGGGTGACTGTTAAAAGT
DNA 2: ACTTTTAACAGTCACCCCCCAACTAACACA
For the molecule B2, the Kd in the series with POLRMT;TFB2M worked out at 5 nM; with POLRMT, 8 nM. Moreover, the binding result in the series with TFAM [2] is on record as “binds”.
